The source of these data is patent US20220144922A1 (Adimab, published 2022).

Experiment [1] concerns the target RSV F protein of subtype A strain A2, on virus (respiratory syncytial virus subtype A …, UniProt P03420 26-574). The experiment in a line: cell-based or functional assay.
In experiment [2] the target is RSV F protein of subtype B strain 18537, on virus (respiratory syncytial virus subtype B …, UniProt P13843 26-574). The experiment is described as follows: cell-based or functional assay.
Experiment [3] addresses T1, prefusion-stabilized RSV F ectodomain (DS-Cav1), subtype B (respiratory syncytial virus subtype B).
T1 construct: extracellular domain; also called Prefusion subtype B
The experiment in a line: BLI, IgG on sensor. (BLI is a label-free optical method that tracks binding on a fibre tip over time.)
Protocol: IgG binding to DS-Cav1 and FA FP was determined by BLI measurements using a FortéBio Octet HTX instrument (Pall Life Sciences). […] Data was analyzed using the ForteBio Data Analysis Software 7. The data was fit to a 1:1 binding model to calculate an association and dissociation rate, and KD was calculated using the ratio kd/kₐ.

B1: ADI-15590 (antibody, V domains shown)
VH: EVQLLESGGLVVQPGGSLRLSCAASGFIFDDYTMHWVRQAPGKGLEWISLISWDSLDTYYAGSVQGRFTISRDNSRNSLYLRMNSLRPEDTALYYCAKTKYRGTYYYFDSWGQGTLVTVSS
VL: DIRVTQSPSSLSASVGDRVTITCQASQDISNYLNWYQQKPGKAPKLLIYDASNLETGVPSRFSGRGSGTDFTFTISSLQPEDIATYYCQQYDNLPPVTFGPGTKVEIK
On to B1, for which the “Neut IC50 (ug/ml) subtype A” value in experiment [1] is over 10 µg/mL. Besides, the “Neut IC50 (ug/ml) subtype B” value in experiment [2] is over 10 µg/mL.

B2: ADI-15555 (antibody, V domains shown)
VH: EVQLVESGGALVKPGGSLRLSCVGTGLTFTTAYMSWARQAPGKGLEWVGRIKSKSDGGTTDYPTPVKGRFTISRDESKNTLYLQMNSLKIEDTAVYYCTTDRGITARPIFDSWGQGTLVTVSS
VL: QSVLTQPPSVSGALGRRVTISCTGSSSNIGAGYDVHWYRQLPGTAPKLLIYGNTKRPSGVPDRFSGSKYATSASLAITGLQAEDDADYYCQSYDGGLSGYVFGTGTKLTVL
For the molecule B2, the “Neut IC50 (ug/ml) subtype A” value in experiment [1] was 2.19 µg/mL. For the same molecule, in experiment [2], the “Neut IC50 (ug/ml) subtype B” value worked out at 2.45 µg/mL.

B3: ADI-15579 (antibody, V domains shown)
VH: EVQLVESGGGLVQPGRSLRLSCAAFGFTFDDYAMHWVRQAPGKGLEWVSGISWNSGFIGYADSVKGRFTISRDNAKNSLSLQMNSLRTEDTALYYCAKTDGAVAVDGPFDYWGQGTLVTVSS
VL: EIVLTQSPSSLSASVGDRVTITCRASQSISGYLSWYQQKPGKAPKLLIHSTSSLQSGVPSRFSGSGSGTDFTLTITSLQPEDFATYYCQQSYIAPPTFGQGTKVEIK
For B3, the “Neut IC50 (ug/ml) subtype A” value in experiment [1] turned out to be 8.02 µg/mL. The “Neut IC50 (ug/ml) subtype B” value in experiment [2] is over 10 µg/mL.

B4: ADI-15572 (antibody, V domains shown)
VH: QVQLVQSGAEAKKPGASVKVSCKASGYTFTSYYLHWVRQAPGQGPEWMGIINPGGGSTELSQKFQGRVTLTRDTSTSTVYMEVTSLTSEDTAVYYCARARIQLWAPNYYGMDVWGQGTTVTVSS
VL: DIQLTQSPSFLSASVGDRVTITCRASHGITSYLAWYQQKPGNAPKLLIYAASTLQSGVPSRFSGSGSETQFTLTISGLQPEDFATYYCQQLNRYPLTFGQGTKVEIK
Regarding B4, the “Neut IC50 (ug/ml) subtype A” value in experiment [1] was 9.48 µg/mL. Also, the “Neut IC50 (ug/ml) subtype B” value in experiment [2] is 6.25 µg/mL.

B5: ADI-15570 (antibody, V domains shown)
VH: QVQLVESGGGVVQPGKSLRLSCAASGFTFSSYPMHWVRQAPGAGLEWMAVISYDGANKYYEDSLKGRFTISRDNSKDTLFLQMNNLRPEDTAVYYCARGRTSHINTPETKWGQGTLVTVSS
VL: EIVLTQSPTLVSASTGDTVTISCRMSQGINGYLAWFQKKPGKAPDLLIYGASTLQDGVPSRFSGSGSGTDFTLTISRLQSEDLATYYCQQYYSLPWTFGQGTKVDIK
For the molecule B5, the “Neut IC50 (ug/ml) subtype A” value in experiment [1] was determined as 13.3 µg/mL. Further, the “Neut IC50 (ug/ml) subtype B” value in experiment [2] was over 10 µg/mL.

B6: ADI-15574 (antibody, V domains shown)
VH: QVQLVQSGGGLVKPGGSLRLSCAASGFTISGYNMFWVRQPPGKGLEWVSSITAGSSYLNYADSVKGRFIVSRDNAKNSLYLQMNSLRAEDTAVYFCARAPLLPAMMDLWGQGTTVTVSS
VL: QSVLTQPPSVSGAPGQRVTISCTGSSSNIGAGYDVHWYQQLPGTAPKLLIYTNNNRPSGVPDRFSGSKSGTSASLAITGLQAEDEADYYCQSYDRSLNGYVFGTGTKLTVL
notes: IgG; also called Antibody Number 144
One may read the Kd as the equilibrium constant for the complex coming apart. Regarding B6, in experiment [1], the “Neut IC50 (ug/ml) subtype A” value turned out to be 0.176 µg/mL. For the same molecule, the “Neut IC50 (ug/ml) subtype B” value in experiment [2] was determined as 0.226 µg/mL. In experiment [3], this molecule gave a Kd of 0.46 nM.

B7: ADI-15635 (antibody, V domains shown)
VH: EVQLLESGGGLVKPGGSLRLSCAASGFTISGYNMFWVRQPPGKGLEWVSSITAGSSYLNYADSVKGRFIVSRDNAKNSLYLQMNSLRAEDTAVYFCARAPLLPAMMDLWGQGTTVTVSS
VL: QSVLTQPPSVSGAPGQRVTISCTGSSSNIGAGYDVHWYQQLPGTAPKLLIYTNNNRPSGVPDRFSGSKSGTSASLAITGLQAEDEADYYCQSYDRSLNGYVFGTGTKVTVL
notes: IgG; also called Antibody Number 200
As for B7, the “Neut IC50 (ug/ml) subtype A” value in experiment [1] worked out at 0.115 µg/mL. Further, the “Neut IC50 (ug/ml) subtype B” value in experiment [2] worked out at 0.226 µg/mL. In experiment [3], this molecule had a Kd of 0.431 nM.

B8: ADI-15648 (antibody, V domains shown)
VH: EVQLVESGGGLVKPGGSLRLSCAASGFTISGYNMFWVRQPPGKGLEWVSSITAGSSYLNYADSVKGRFIVSRDNAKNSLYLQMNSLRAEDTAVYFCARAPLLPAMMDLWGQGTTVTVSS
VL: QSVVTQPPSVSGAPGQRVTISCTGSSSNIGAGYDVHWYQQLPGTAPKLLIYTNNNRPSGVPDRFSGSKSGTSASLAITGLQAEDEADYYCQSYDRSLNGYVFGTGTTVTVL
notes: IgG; also called Antibody Number 212
B8: the “Neut IC50 (ug/ml) subtype A” value in experiment [1] is 0.064 µg/mL. Further, in experiment [2], the “Neut IC50 (ug/ml) subtype B” value was 0.145 µg/mL. For the same molecule, the affinity in experiment [3], expressed as Kd, was 0.438 nM.

B9: ADI-15616 (antibody, V domains shown)
VH: QVQLVQSGGGLVKPGGSLRLSCAASGFTFSDHYMTWIRQAPGKGLEWVSYISSTSSFTNYADSVKGRFTISRDNAKKSLYLQMNSLRAEDTAVYYCARDRNWGYAYGSDYWGQGTLVTVSS
VL: DIRLTQSPDTLSLSPGERATLSCRASQSVSSTYLAWYQQKPGQAPRLLIYGAFGRATGIPDRFSGSGSGTDFTLTISRLEPEDFAVYYCQLYGNSRTFGQGTKLEIK
notes: IgG
As for B9, the “Neut IC50 (ug/ml) subtype A” value in experiment [1] came out at 4.52 µg/mL. For the same molecule, the “Neut IC50 (ug/ml) subtype B” value in experiment [2] stood at 5.58 µg/mL. Moreover, the Kd in experiment [3] came out at 1.74 nM.

B10: ADI-15557 (antibody, V domains shown)
VH: QVQLVQSGAEVKRPGSSVKVSCKASGGTFSSFAINWVRQAPGQGLEWMGGLIPIFGTPNNAQKFQGRVTITADESTSTAYMELSSLRSEDTAVYYCASLRYFDWQPGGSYWFDPWGQGTLVTVSS
VL: QPGLTQPPSVSVAPGKTARIACGGDNIGTKGVHWYQQKPGQAPVLVIYYDSDRPSGIPERFSGSNSGNTATLTISGVEAGDEADYYCQVWDTIDDHKDGLFGGGTKLTVL
notes: IgG
In the case of B10, the “Neut IC50 (ug/ml) subtype A” value in experiment [1] was determined as 0.041 µg/mL. For the same molecule, the “Neut IC50 (ug/ml) subtype B” value in experiment [2] amounted to 0.028 µg/mL. This molecule came in with an equilibrium dissociation constant (Kd) in experiment [3] of 0.61 nM.

B11: ADI-15581 (antibody, V domains shown)
VH: QVQLVQSGAEVKKPGSSMKVSCQASGGPFSTYTISWVRQAPGQGLEWMGGIIPVFGTPNYAQKFHGRVTITADQSTSTAYMELSSLRSEDTAVYYCAGAPYPMDVWGQGTTVTVSS
VL: EIVLTQSPATLSLSPGERATLSCRASQSVASSLAWYQQKPGQAPRLLIYDASNRATGIPARFSGSGSGTDFTLTISSLEPEDFAVYYCQQRTNWQGLSFGGGTKVDIK
For B11, in experiment [1], the “Neut IC50 (ug/ml) subtype A” value turned out to be 8.25 µg/mL. Further, the “Neut IC50 (ug/ml) subtype B” value in experiment [2] was determined as 6.12 µg/mL.

B12: ADI-15589 (antibody, V domains shown)
VH: QVQLQQWGAGLLKPSETLSLTCAVYGGSFSGYYWGWIRQPPGKGLEWIGEVNHSGTSNYNPSLTSRVTISVDPSKKQLSLKLNSVTAADTAVYYCARAPWYTHAMDVWGQGTTVTVSS
VL: QSVLTQPASVSGSPGQSITISCTRTSSDVGAYSYVSWYQQHPGKAPKLMIYDVNNRPSGVSNRFSGSKSGNTASLTISGLQAEDEADYYCSSYTNSNTLGVFGGGTKLTVL
As for B12, the “Neut IC50 (ug/ml) subtype A” value in experiment [1] was determined as 0.876 µg/mL. In experiment [2], the “Neut IC50 (ug/ml) subtype B” value was found to be 18.5 µg/mL.

B13: ADI-15597 (antibody, V domains shown)
VH: QVQLVQSGGGLVKPGGSLRLSCAGSGFTFSSYTLNWVRQAPGKGLEWVSSISSSSTYIYYADSVKGRFTISRDNAKNSLHLQMNSLRAEDTAVYYCARADYDRSVYHLNWFDPWGQGTLVTVSS
VL: QSVLTQPPSVSGAPGQRVTISCTGSSSNIGAGYDVHWYQQLPGAAPKLLIYGNTNRPSGVPDRFSGSKSGTSASLAITGLQADDEADYYCQSYDSSLSGTWVFGGGTKLTVL
notes: IgG
For B13, in experiment [1], the “Neut IC50 (ug/ml) subtype A” value came to 0.163 µg/mL. The “Neut IC50 (ug/ml) subtype B” value in experiment [2] stood at 1.79 µg/mL. Further, the Kd in experiment [3] is 6.09 nM.

B14: ADI-15615 (antibody, V domains shown)
VH: EVQLVETGGGLVKPGGSLRLSCAGSGFTFSSYTLNWVRQAPGKGLEWVSSISSSSTYIYYADSVKGRFTISRDNAKNSLHLQMNSLRAEDTAVYYCARADYDRSVYHLNWLDPWGQGTLVTVSS
VL: QPVLTQPPSVSGAPGQRVTISCTGSSSNIGAGYDVHWYQQLPGAAPKLLIYGNTNRPSGVPDRFSGSKSGTSASLAITGLQADDEADYYCQSYDSSLSGTWVFGGGTKLTVL
notes: IgG; also called Antibody Number 180
Take B14: the “Neut IC50 (ug/ml) subtype A” value in experiment [1] was determined as 0.977 µg/mL. Besides, the “Neut IC50 (ug/ml) subtype B” value in experiment [2] came out at 1.68 µg/mL. This molecule had a Kd in experiment [3] of 11.6 nM.

B15: ADI-15558 (antibody, V domains shown)
VH: QVQLVQSGGEVKKPGASVKVSCKASGYTFTTYGISWVRQAPGHGLEWLGWISPKNGNTKYAQKVQGRVTMTIDPTTSTAYMELRSLRSDDTAMYYCARDYIVAIVAALPHGMDVWGQGTLVTVSS
VL: QSVLTQPPSLSVSPGQTASISCSGDQLGNKYVCWYQQKPGQSPVLVIYQDSRRPSGVPERFSGSNSGNTATLTVGGTQPMDEADYYCQAWDSSIRVFGGGTKVTVL
notes: IgG
The molecule B15 returned a Kd in experiment [3] of 0.94 nM.

B16: ADI-15607 (antibody, V domains shown)
VH: QVQLVQSGGGLVQPGGSLRLSCAASRFTFSSYAMSWVRQAPGKGLEWVSTISGSGISTYYADSVKGRFTISRDNSKNTLYLQMNSLSAEDTAVYYCAKELREYYYDSSGFDYWGQGTLVTVSS
VL: QPVLTQSRSVSGSPEQSVTISCTGTSSDVGGYNYVSWYQQHPGKAPKLMIYDVSKRPSGVPDRFSGSKSGNTASLTISGLQAEDESDYYCCSYAGTYTYVFGTGTKVTVL
On to B16, for which, in experiment [1], the “Neut IC50 (ug/ml) subtype A” value was over 10 µg/mL. In addition, the “Neut IC50 (ug/ml) subtype B” value in experiment [2] was over 10 µg/mL.

B17: ADI-15618 (antibody, V domains shown)
VH: EVQLVETGGGLIQPGGSLRLSCVASGFSLRNYALGWLRQAPGKGLEWVSGGYYGDVYYTDSVKGRFAVSRDNSGDTVYLEMDNLRVEDTAVYYCARMETVTTDAGSGWDWYFEVWGRGTLVTVSS
VL: ETTLTQSPATLSLSPGDWATLSCRASQSVGTYLAWYQHKPGQAPRLLIHDASNRASDIPSRFSGSGSGTDFTLTIRGLEPEDFAVYYCQQHRDWRPVTFGGGTKVEIK
notes: IgG
Regarding B17, the “Neut IC50 (ug/ml) subtype A” value in experiment [1] amounted to 0.003 µg/mL. Binding in experiment [3] was put at a Kd of 0.535 nM.

B18: ADI-15595 (antibody, V domains shown)
VH: EVQLVESGPTLVKPTQTLTLTCTFSGFSLTTIGVGVGWIRQPPGKALEFLGIVYWDDDKRYSPSLKSRLTITKDTSKNQVVLTMTTLAPEDTGTYYCTYARYSSALFGGYYFHSWGQGTLVTVSS
VL: QSVLTQPPSVSVAPGQTAKITCGGNDIGSRSVHWYQQKPGQAPVLVVYDNSDRPSGIPERFSGSNSGDTATLTISRVEAGDEAVYYCQVWESSGDHPRIFGGGTKLTVL
As for B18, the “Neut IC50 (ug/ml) subtype A” value in experiment [1] is 0.02 µg/mL. For the same molecule, the “Neut IC50 (ug/ml) subtype B” value in experiment [2] was 0.17 µg/mL.
